In patent US20250163127A1:

Legend:
human PD-1 (human) [1] = biological target: human PD-1 (human) (UniProt Q15116); assay: flow cytometry, Jurkat/PD-1 cells
CD80 (human) = assay: flow cytometry, cells expressing CD80, 20 nM
human PD-1 (human) [2] = biological target: human PD-1 (human) (UniProt Q15116); assay: flow cytometry, cells expressing PD-1, 20 nM
human PD-1 (human) [3] = biological target: human PD-1 (human) (UniProt Q15116)
human PD-1 (human) [4] = biological target: human PD-1 (human) (UniProt Q15116); assay: flow cytometry, Jurkat/PD-1 cells, 50 nM
PD-1-Fc (human) = PD-1-Fc (human) (UniProt Q15116); assay: ForteBio Octet, PD-1 on anti-human capture sensor, 100 nM
Sequence of PD-1-Fc (human) (Q15116 25-167 limits assumed): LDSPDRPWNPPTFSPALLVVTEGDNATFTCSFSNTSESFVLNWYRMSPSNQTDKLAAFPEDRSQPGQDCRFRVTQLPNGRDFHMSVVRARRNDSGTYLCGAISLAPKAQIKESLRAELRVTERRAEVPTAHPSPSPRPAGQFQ

[5] = substrate: ICOS as used in the OD read-out of Table E15A (Homo sapiens (Human)) (UniProt Q9Y6W8); assay: OD read-out, format not told
[6] = biological target: CD28, full-length, expressed on transfected cells (Homo sapiens (Human)) (UniProt P10747); assay: flow cytometry, cells expressing target

Sequence of human PD-1 (human) (Q15116 25-288): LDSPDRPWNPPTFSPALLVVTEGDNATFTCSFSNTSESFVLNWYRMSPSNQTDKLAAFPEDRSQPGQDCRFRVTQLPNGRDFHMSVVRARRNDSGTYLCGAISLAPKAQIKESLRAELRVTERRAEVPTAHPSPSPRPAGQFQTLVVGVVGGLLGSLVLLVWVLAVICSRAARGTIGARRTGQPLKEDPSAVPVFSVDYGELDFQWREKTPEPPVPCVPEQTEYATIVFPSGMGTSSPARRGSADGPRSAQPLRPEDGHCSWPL
Sequence of CD80 (human) (chain, as listed by the source): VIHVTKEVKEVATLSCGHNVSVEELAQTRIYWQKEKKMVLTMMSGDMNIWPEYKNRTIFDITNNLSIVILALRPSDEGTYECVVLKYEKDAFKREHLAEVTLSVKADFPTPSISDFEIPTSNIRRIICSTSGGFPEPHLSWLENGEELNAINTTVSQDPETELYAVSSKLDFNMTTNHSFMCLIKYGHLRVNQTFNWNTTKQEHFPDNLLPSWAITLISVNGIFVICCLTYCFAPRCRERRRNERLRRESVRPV

Row | Binder | OD [5] | parental ratio [5] | MFI [6] | parental ratio [6] | other results
1 | PD-L1 IgV-Fc I20L/I36T/N45D/I47T (Fc fusion) FTVTVPKDLYVVEYGSNMTLECKFPVEKQLDLAALTVYWEMEDKDITQFVHGEEDLKVQHSSYRQRARLLKDQLSLGNAALQITDVKLQDAGVYRCMISYGGADYKRITVKVNA | – | – | – | – | Fold increase over wildtype PD-L1 IgV-Fc (human PD-1 (human) [1]): 0.6 fold; MFI at 50 nM (human PD-1 (human) [1]): 3120
2 | variant PD-L1 K57R/S99G/R195G Fc fusion (Fc fusion) FTVTVPKDLYVVEYGSNMTIECKFPVEKQLDLAALIVYWEMEDKNIIQFVHGEEDLRVQHSSYRQRARLLKDQLSLGNAALQITDVKLQDAGVYRCMIGYGGADYKRITVKVNAPYNKINQRILVVDPVTSEHELTCQAEGYPKAEVIWTSSDHQVLSGKTTTTNSKREEKLFNVTSTLRINTTTNEIFYCTFRGLDPEENHTAELVIPELPLAHPPNER | – | – | – | – | MFI at 20 nM (CD80 (human)): 11000 MFI
3 | variant PD-L1 I36T/I83T/M97L/K144E/P198T Fc fusion (Fc fusion) FTVTVPKDLYVVEYGSNMTIECKFPVEKQLDLAALTVYWEMEDKNIIQFVHGEEDLKVQHSSYRQRARLLKDQLSLGNAALQTTDVKLQDAGVYRCLISYGGADYKRITVKVNAPYNKINQRILVVDPVTSEHELTCQAEGYPEAEVIWTSSDHQVLSGKTTTTNSKREEKLFNVTSTLRINTTTNEIFYCTFRRLDTEENHTAELVIPELPLAHPPNER | – | – | – | – | MFI at 20 nM (human PD-1 (human) [2]): 62 MFI
4 | variant PD-L1 I36T/M97L/Q155H/F193S/N201Y Fc fusion (Fc fusion) FTVTVPKDLYVVEYGSNMTIECKFPVEKQLDLAALTVYWEMEDKNIIQFVHGEEDLKVQHSSYRQRARLLKDQLSLGNAALQITDVKLQDAGVYRCLISYGGADYKRITVKVNAPYNKINQRILVVDPVTSEHELTCQAEGYPKAEVIWTSSDHHVLSGKTTTTNSKREEKLFNVTSTLRINTTTNEIFYCTSRRLDPEEYHTAELVIPELPLAHPPNER | – | – | – | – | MFI at 20 nM (CD80 (human)): 1250 MFI
5 | variant PD-L1 N17D/M97L/S99G Fc fusion (Fc fusion) FTVTVPKDLYVVEYGSDMTIECKFPVEKQLDLAALIVYWEMEDKNIIQFVHGEEDLKVQHSSYRQRARLLKDQLSLGNAALQITDVKLQDAGVYRCLIGYGGADYKRITVKVNAPYNKINQRILVVDPVTSEHELTCQAEGYPKAEVIWTSSDHQVLSGKTTTTNSKREEKLFNVTSTLRINTTTNEIFYCTFRRLDPEENHTAELVIPELPLAHPPNER | – | – | – | – | MFI at 20 nM (human PD-1 (human) [2]): 10100 MFI
6 | variant PD-L1 Y10F/M18V/S99G/Q138R/T203A Fc fusion (Fc fusion) FTVTVPKDLFVVEYGSNVTIECKFPVEKQLDLAALIVYWEMEDKNIIQFVHGEEDLKVQHSSYRQRARLLKDQLSLGNAALQITDVKLQDAGVYRCMIGYGGADYKRITVKVNAPYNKINQRILVVDPVTSEHELTCRAEGYPKAEVIWTSSDHQVLSGKTTTTNSKREEKLFNVTSTLRINTTTNEIFYCTFRRLDPEENHAAELVIPELPLAHPPNER | – | – | – | – | MFI at 20 nM (human PD-1 (human) [2]): 70 MFI
7 | variant PD-L2 IgV H15Q/Q72H/V89D Fc fusion (Fc fusion) LFTVTVPKELYIIEQGSNVTLECNFDTGSHVNLGAITASLQKVENDTSPHRERATLLEEQLPLGKASFHIPHVQVRDEGQYQCIIIYGDAWDYKYLTLKVKA | – | – | – | – | IFN gamma levels pg/mL (MLR) (human PD-1 (human) [3]): 1270 pg/mL; MFI at 50 nM (human PD-1 (human) [4]): 12600 MFI
8 | variant PD-L2 IgV I13V/H15Q/T47A/R76G/V89D Fc fusion (Fc fusion) LFTVTVPKELYIVEQGSNVTLECNFDTGSHVNLGAITASLQKVENDASPHRERATLLEEQLPLGKASFHIPQVQVGDEGQYQCIIIYGDAWDYKYLTLKVKA | – | – | – | – | IFN gamma levels pg/mL (MLR) (human PD-1 (human) [3]): 1250 pg/mL; Fortebio Response Units (Response Units) (PD-1-Fc (human)): 1.6
9 | variant PD-L2 IgV H15Q/N24S/T47A/Q72H/R76G/V89D Fc fusion (Fc fusion) LFTVTVPKELYIIEQGSNVTLECSFDTGSHVNLGAITASLQKVENDASPHRERATLLEEQLPLGKASFHIPHVQVGDEGQYQCIIIYGDAWDYKYLTLKVKA | – | – | – | – | IFN gamma levels pg/mL (MLR) (human PD-1 (human) [3]): 1090 pg/mL; Fortebio Response Units (Response Units) (PD-1-Fc (human)): 0.4
10 | variant PD-L2 IgV I13V/H15Q/T37A/E44D/S48C/S67L/Q82R/V89D Fc fusion (Fc fusion) LFTVTVPKELYIVEQGSNVTLECNFDTGSHVNLGAIAASLQKVDNDTCPHRERATLLEEQLPLGKALFHIPQVQVRDEGQYRCIIIYGDAWDYKYLTLKVKA | – | – | – | – | IFN gamma levels pg/mL (MLR) (human PD-1 (human) [3]): 1750 pg/mL; Fortebio Response Units (Response Units) (PD-1-Fc (human)): 1.25
11 | ICOSL ECD-Fc N52S (Fc fusion) DTQEKEVRAMVGSDVELSCACPEGSRFDLNDVYVYWQTSESKTVVTYHIPQSSSLENVDSRYRNRALMSPAGMLRGDFSLRLFNVTPQDEQKFHCLVLSQSLGFQEVLSVEVTLHVAANFSVPVVSAPHSPSQDELTFTCTSINGYPRPNVYWINKTDNSLLDQALQNDTVFLNMRGLYDVVSVLRIARTPSVNIGCCIENVLLQQNLTVGSQTGNDIGERDKITENPVSTGEKNAAT | 1.33 OD | 1.55 ratio to WT | 162 MFI | 9 ratio to WT | –
12 | ICOSL ECD-Fc N52D (Fc fusion) DTQEKEVRAMVGSDVELSCACPEGSRFDLNDVYVYWQTSESKTVVTYHIPQDSSLENVDSRYRNRALMSPAGMLRGDFSLRLFNVTPQDEQKFHCLVLSQSLGFQEVLSVEVTLHVAANFSVPVVSAPHSPSQDELTFTCTSINGYPRPNVYWINKTDNSLLDQALQNDTVFLNMRGLYDVVSVLRIARTPSVNIGCCIENVLLQQNLTVGSQTGNDIGERDKITENPVSTGEKNAAT | 1.59 OD | 1.85 ratio to WT | 130 MFI | 7.22 ratio to WT | –
13 | ICOSL ECD-Fc N52S/Y146C/Y152C (Fc fusion) DTQEKEVRAMVGSDVELSCACPEGSRFDLNDVYVYWQTSESKTVVTYHIPQSSSLENVDSRYRNRALMSPAGMLRGDFSLRLFNVTPQDEQKFHCLVLSQSLGFQEVLSVEVTLHVAANFSVPVVSAPHSPSQDELTFTCTSINGCPRPNVCWINKTDNSLLDQALQNDTVFLNMRGLYDVVSVLRIARTPSVNIGCCIENVLLQQNLTVGSQTGNDIGERDKITENPVSTGEKNAAT | 1.26 OD | 1.47 ratio to WT | 39 MFI | 2.17 ratio to WT | –
14 | ICOSL ECD-Fc N52S/Y152H (Fc fusion) DTQEKEVRAMVGSDVELSCACPEGSRFDLNDVYVYWQTSESKTVVTYHIPQSSSLENVDSRYRNRALMSPAGMLRGDFSLRLFNVTPQDEQKFHCLVLSQSLGFQEVLSVEVTLHVAANFSVPVVSAPHSPSQDELTFTCTSINGYPRPNVHWINKTDNSLLDQALQNDTVFLNMRGLYDVVSVLRIARTPSVNIGCCIENVLLQQNLTVGSQTGNDIGERDKITENPVSTGEKNAAT | 0.85 OD | 0.99 ratio to WT | 68 MFI | 3.78 ratio to WT | –
15 | ICOSL ECD-Fc F120S/Y152H/N201S (Fc fusion) DTQEKEVRAMVGSDVELSCACPEGSRFDLNDVYVYWQTSESKTVVTYHIPQNSSLENVDSRYRNRALMSPAGMLRGDFSLRLFNVTPQDEQKFHCLVLSQSLGFQEVLSVEVTLHVAANSSVPVVSAPHSPSQDELTFTCTSINGYPRPNVHWINKTDNSLLDQALQNDTVFLNMRGLYDVVSVLRIARTPSVNIGCCIESVLLQQNLTVGSQTGNDIGERDKITENPVSTGEKNAAT | 0.63 OD | 0.73 ratio to WT | 16 MFI | 0.89 ratio to WT | –
16 | ICOSL ECD-Fc N52S/D158G (Fc fusion) DTQEKEVRAMVGSDVELSCACPEGSRFDLNDVYVYWQTSESKTVVTYHIPQSSSLENVDSRYRNRALMSPAGMLRGDFSLRLFNVTPQDEQKFHCLVLSQSLGFQEVLSVEVTLHVAANFSVPVVSAPHSPSQDELTFTCTSINGYPRPNVYWINKTGNSLLDQALQNDTVFLNMRGLYDVVSVLRIARTPSVNIGCCIENVLLQQNLTVGSQTGNDIGERDKITENPVSTGEKNAAT | 1.33 OD | 1.55 ratio to WT | 39 MFI | 2.17 ratio to WT | –
